Test results reported in PMC10491607 (Cell Discovery, 2023).

Molecular target: T1, Angiotensin-converting enzyme 2 (ACE2) (UniProt Q9BYF1 18-805, glycosylation moieties seen in the map)
T1 construct: source: co-transfected in HEK-293T cells for the current recordings
Test: cryo-EM structure; ACE2-SIT1 complex bound to Pro, 3.3 Å overall (transmembrane domain 3.7 Å local)
Details: both partners purified

T1 sequence (Q9BYF1 18-805): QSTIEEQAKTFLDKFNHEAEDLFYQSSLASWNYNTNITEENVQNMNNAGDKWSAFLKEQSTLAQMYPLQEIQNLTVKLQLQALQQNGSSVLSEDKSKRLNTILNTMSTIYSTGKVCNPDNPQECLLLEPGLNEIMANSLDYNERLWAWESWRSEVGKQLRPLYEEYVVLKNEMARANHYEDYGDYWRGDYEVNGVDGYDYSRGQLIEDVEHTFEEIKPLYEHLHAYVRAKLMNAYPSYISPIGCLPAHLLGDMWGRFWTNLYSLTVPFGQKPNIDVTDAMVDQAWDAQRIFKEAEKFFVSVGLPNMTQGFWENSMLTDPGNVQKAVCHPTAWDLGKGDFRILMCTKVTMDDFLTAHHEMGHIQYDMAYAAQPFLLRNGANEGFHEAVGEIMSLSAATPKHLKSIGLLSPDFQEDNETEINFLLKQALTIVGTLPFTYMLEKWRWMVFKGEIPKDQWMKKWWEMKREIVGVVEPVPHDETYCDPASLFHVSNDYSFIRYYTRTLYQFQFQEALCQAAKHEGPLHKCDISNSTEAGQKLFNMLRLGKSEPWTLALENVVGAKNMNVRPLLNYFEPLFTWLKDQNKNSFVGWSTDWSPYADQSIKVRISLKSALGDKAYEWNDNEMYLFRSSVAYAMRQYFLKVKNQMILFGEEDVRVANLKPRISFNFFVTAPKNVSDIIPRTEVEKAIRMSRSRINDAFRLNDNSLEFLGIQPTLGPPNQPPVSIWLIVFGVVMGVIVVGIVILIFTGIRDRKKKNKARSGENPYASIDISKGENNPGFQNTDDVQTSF

- binding result: binds
B1: SIT1 (SLC6A20) (natural protein)
chain: MEKARPLWANSLQFVFACISYAVGLGNVWRFPYLCQMYGGGSFLVPYIIMLIVEGMPLLYLELAVGQRMRQGSIGAWRTISPYLSGVGVASVVVSFFLSMYYNVINAWAFWYLFHSFQDPLPWSVCPLNGNHTGYDEECEKASSTQYFWYRKTLNISPSLQENGGVQWEPALCLLLAWLVVYLCILRGTESTGKVVYFTASLPYCVLIIYLIRGLTLHGATNGLMYMFTPKIEQLANPKAWINAATQIFFSLGLGFGSLIAFASYNEPSNNCQKHAIIVSLINSFTSIFASIVTFSIYGFKATFNYENCLKKVSLLLTNTFDLEDGFLTASNLEQVKGYLASAYPSKYSEMFPQIKNCSLESELDTAVQGTGLAFIVYTEAIKNMEVSQLWSVLYFFMLLMLGIGSMLGNTAAILTPLTDSKIISSHLPKEAISGLVCLVNCAIGMVFTMEAGNYWFDIFNDYAATLSLLLIVLVETIAVCYVYGLRRFESDLKAMTGRAVSWYWKVMWAGVSPLLIVSLFVFYLSDYILTGTLKYQAWDASQGQLVTKDYPAYALAVIGLLVASSTMCIPLAALGTFVQRRLKRGDADPVA
notes: also called WT; source: co-transfected in HEK-293T cells for the current recordings
